From paper PMC11718230 (Nature Communications, 2025)
Blank lines part the entries; values can stand above or below the binder they belong to.

Biological target: T1, ATTO647N-STX17 SNARE domain (residues 161-231, E198C) (UniProt P56962 161-231, E198C, ATTO647N maleimide conjugated (cysteine introduced by E198C))
T1 sequence (looked up): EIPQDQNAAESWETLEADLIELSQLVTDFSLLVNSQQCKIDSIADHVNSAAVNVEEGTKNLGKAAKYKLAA
Assay: FRET or BRET

binding result: binds
B1: ATTO550-VAMP7 SNARE domain (residues 123-187, E152C) (domain or fragment, UniProt P51809 123-187, looked up)
chain: LDKVMETQAQVDELKGIMVRNIDLVAQRGC(ATTO550 maleimide)RLELLIDKTENLVDSSVTFKTTSRNLARAMCMKNL

binding result: binds
B2: ATTO550-VAMP8 SNARE domain (10-74, E39C) (domain or fragment, UniProt Q9BV40 10-74, looked up)
chain: NDRVRNLQSEVEGVKNIMTQNVERILARGC(ATTO550 maleimide)NLEHLRNKTEDLEATSEHFKTTSQKVARKFWWKNV
